Results taken from patent US20120114630.

Molecular target: recombinant staphylokinase SAK-SY162

B1: microplasminogen variant Lys137Met (K137M) (protein)
chain: APSFDCGKPQVEPKKCPGRVVGGCVAHPHSWPWQVSLRTRFGMHFCGGTLISPEWVLTAAHCLEKSPRPSSYKVILGAHQEVNLEPHVQEIEVSRLFLEPTRKDIALLKLSSPAVITDKVIPACLPSPNYVVADRTECFITGWGETQGTFGAGLLMEAQLPVIENKVCNRYEFLNGRVQSTELCAGHLAGGTDSCQGDSGGPLVCFEKDKYILQGVTSWGLGCARPNKPGVYVRVSRFVTWIEGVMRNN
With B1 the “conversion of inactive microplasminogen into active microplasmin, HPLC profile 10 min after addition of staphylokinase” value was about 85%.
